Usually Kd stands for the concentration at which binding is half-saturated. A higher Kd goes with weaker binding.

B1: target 1 insC 3' of 20,insU 3' of 1 (mixed)
RNA 1: CACCCGUGCAAAAAUGCAGGGGUCUAAAACUGAGCGGAUAACCUCUCUAUGG
RNA 2: GGGAAUGGAUCCACAUCUACGAAUUCGUACCACUAGAGAGGUUAUCCGCUCAUCCGAGAUCGGAAGAGCACACGU
B2: target 1 A9G,G15U (mixed)
RNA 1: CACCCGUGCAAAAAUGCAGGGGUCUAAAACUGAGCGGAUAACCUCUCUAUGG
RNA 2: GGGAAUGGAUCCACAUCUACGAAUUCGUACCAUAGAUAGGUUGUCCGCUCACCGAGAUCGGAAGAGCACACGU
B3: target 1 A9G,C22A (mixed)
RNA 1: CACCCGUGCAAAAAUGCAGGGGUCUAAAACUGAGCGGAUAACCUCUCUAUGG
RNA 2: GGGAAUGGAUCCACAUCUACGAAUUCGUAACAUAGAGAGGUUGUCCGCUCACCGAGAUCGGAAGAGCACACGU
B4: target 2 MT 5'PFS AGA 3'PFS UCA (mixed)
RNA 1: CACCCGUGCAAAAUUGCAGGGGUCUAAAACCUUCUCCAAAUUGUUUCAUCCU
RNA 2: GGGAAUGGAUCCACAUCUACGAAUUCAGAAGGAUGAAACAAUUUGGAGAAGUCAAGAUCGGAAGAGCACACGU
B5: target 2 MT 5'PFS UGG 3'PFS CAC (mixed)
RNA 1: CACCCGUGCAAAAUUGCAGGGGUCUAAAACCUUCUCCAAAUUGUUUCAUCCU
RNA 2: GGGAAUGGAUCCACAUCUACGAAUUCUGGAGGAUGAAACAAUUUGGAGAAGCACAGAUCGGAAGAGCACACGU
B6: target 2 MT 5'PFS GUC 3'PFS UAG (mixed)
RNA 1: CACCCGUGCAAAAUUGCAGGGGUCUAAAACCUUCUCCAAAUUGUUUCAUCCU
RNA 2: GGGAAUGGAUCCACAUCUACGAAUUCGUCAGGAUGAAACAAUUUGGAGAAGUAGAGAUCGGAAGAGCACACGU
B7: target 2 MT 5'PFS UAU 3'PFS GAG (mixed)
RNA 1: CACCCGUGCAAAAUUGCAGGGGUCUAAAACCUUCUCCAAAUUGUUUCAUCCU
RNA 2: GGGAAUGGAUCCACAUCUACGAAUUCUAUAGGAUGAAACAAUUUGGAGAAGGAGAGAUCGGAAGAGCACACGU
B8: target 2 MT 5'PFS GUC 3'PFS UAC (mixed)
RNA 1: CACCCGUGCAAAAUUGCAGGGGUCUAAAACCUUCUCCAAAUUGUUUCAUCCU
RNA 2: GGGAAUGGAUCCACAUCUACGAAUUCGUCAGGAUGAAACAAUUUGGAGAAGUACAGAUCGGAAGAGCACACGU
B9: target 2 MT 5'PFS UGG 3'PFS AAC (mixed)
RNA 1: CACCCGUGCAAAAUUGCAGGGGUCUAAAACCUUCUCCAAAUUGUUUCAUCCU
RNA 2: GGGAAUGGAUCCACAUCUACGAAUUCUGGAGGAUGAAACAAUUUGGAGAAGAACAGAUCGGAAGAGCACACGU
B10: target 2 MT 5'PFS UGG 3'PFS AGU (mixed)
RNA 1: CACCCGUGCAAAAUUGCAGGGGUCUAAAACCUUCUCCAAAUUGUUUCAUCCU
RNA 2: GGGAAUGGAUCCACAUCUACGAAUUCUGGAGGAUGAAACAAUUUGGAGAAGAGUAGAUCGGAAGAGCACACGU
B11: target 2 MT 5'PFS CAU 3'PFS UUU (mixed)
RNA 1: CACCCGUGCAAAAUUGCAGGGGUCUAAAACCUUCUCCAAAUUGUUUCAUCCU
RNA 2: GGGAAUGGAUCCACAUCUACGAAUUCCAUAGGAUGAAACAAUUUGGAGAAGUUUAGAUCGGAAGAGCACACGU
B12: target 2 MT 5'PFS UGU 3'PFS AUA (mixed)
RNA 1: CACCCGUGCAAAAUUGCAGGGGUCUAAAACCUUCUCCAAAUUGUUUCAUCCU
RNA 2: GGGAAUGGAUCCACAUCUACGAAUUCUGUAGGAUGAAACAAUUUGGAGAAGAUAAGAUCGGAAGAGCACACGU
B13: target 2 MT 5'PFS AGA 3'PFS UCG (mixed)
RNA 1: CACCCGUGCAAAAUUGCAGGGGUCUAAAACCUUCUCCAAAUUGUUUCAUCCU
RNA 2: GGGAAUGGAUCCACAUCUACGAAUUCAGAAGGAUGAAACAAUUUGGAGAAGUCGAGAUCGGAAGAGCACACGU
B14: target 2 MT 5'PFS ACC 3'PFS CAC (mixed)
RNA 1: CACCCGUGCAAAAUUGCAGGGGUCUAAAACCUUCUCCAAAUUGUUUCAUCCU
RNA 2: GGGAAUGGAUCCACAUCUACGAAUUCACCAGGAUGAAACAAUUUGGAGAAGCACAGAUCGGAAGAGCACACGU
B15: target 2 MT 5'PFS ACA 3'PFS AGC (mixed)
RNA 1: CACCCGUGCAAAAUUGCAGGGGUCUAAAACCUUCUCCAAAUUGUUUCAUCCU
RNA 2: GGGAAUGGAUCCACAUCUACGAAUUCACAAGGAUGAAACAAUUUGGAGAAGAGCAGAUCGGAAGAGCACACGU
B16: target 2 MT 5'PFS GUC 3'PFS UAA (mixed)
RNA 1: CACCCGUGCAAAAUUGCAGGGGUCUAAAACCUUCUCCAAAUUGUUUCAUCCU
RNA 2: GGGAAUGGAUCCACAUCUACGAAUUCGUCAGGAUGAAACAAUUUGGAGAAGUAAAGAUCGGAAGAGCACACGU
B17: target 2 MT 5'PFS UGU 3'PFS AUC (mixed)
RNA 1: CACCCGUGCAAAAUUGCAGGGGUCUAAAACCUUCUCCAAAUUGUUUCAUCCU
RNA 2: GGGAAUGGAUCCACAUCUACGAAUUCUGUAGGAUGAAACAAUUUGGAGAAGAUCAGAUCGGAAGAGCACACGU
B18: target 2 MT 5'PFS ACA 3'PFS AGA (mixed)
RNA 1: CACCCGUGCAAAAUUGCAGGGGUCUAAAACCUUCUCCAAAUUGUUUCAUCCU
RNA 2: GGGAAUGGAUCCACAUCUACGAAUUCACAAGGAUGAAACAAUUUGGAGAAGAGAAGAUCGGAAGAGCACACGU
B19: target 2 MT 5'PFS GUC 3'PFS UAU (mixed)
RNA 1: CACCCGUGCAAAAUUGCAGGGGUCUAAAACCUUCUCCAAAUUGUUUCAUCCU
RNA 2: GGGAAUGGAUCCACAUCUACGAAUUCGUCAGGAUGAAACAAUUUGGAGAAGUAUAGAUCGGAAGAGCACACGU
B20: target 2 MT 5'PFS GCU 3'PFS UAU (mixed)
RNA 1: CACCCGUGCAAAAUUGCAGGGGUCUAAAACCUUCUCCAAAUUGUUUCAUCCU
RNA 2: GGGAAUGGAUCCACAUCUACGAAUUCGCUAGGAUGAAACAAUUUGGAGAAGUAUAGAUCGGAAGAGCACACGU
B21: target 2 MT 5'PFS CAU 3'PFS UUG (mixed)
RNA 1: CACCCGUGCAAAAUUGCAGGGGUCUAAAACCUUCUCCAAAUUGUUUCAUCCU
RNA 2: GGGAAUGGAUCCACAUCUACGAAUUCCAUAGGAUGAAACAAUUUGGAGAAGUUGAGAUCGGAAGAGCACACGU
B22: target 2 MT 5'PFS CAU 3'PFS UUC (mixed)
RNA 1: CACCCGUGCAAAAUUGCAGGGGUCUAAAACCUUCUCCAAAUUGUUUCAUCCU
RNA 2: GGGAAUGGAUCCACAUCUACGAAUUCCAUAGGAUGAAACAAUUUGGAGAAGUUCAGAUCGGAAGAGCACACGU
B23: target 2 MT 5'PFS CAU 3'PFS UUA (mixed)
RNA 1: CACCCGUGCAAAAUUGCAGGGGUCUAAAACCUUCUCCAAAUUGUUUCAUCCU
RNA 2: GGGAAUGGAUCCACAUCUACGAAUUCCAUAGGAUGAAACAAUUUGGAGAAGUUAAGAUCGGAAGAGCACACGU

The series addresses T1, EsCas13d, nuclease-dead (Eubacterium siraeum, UniProt B0MS50, R295A;H300A;R849A;H854A).
T1 sequence: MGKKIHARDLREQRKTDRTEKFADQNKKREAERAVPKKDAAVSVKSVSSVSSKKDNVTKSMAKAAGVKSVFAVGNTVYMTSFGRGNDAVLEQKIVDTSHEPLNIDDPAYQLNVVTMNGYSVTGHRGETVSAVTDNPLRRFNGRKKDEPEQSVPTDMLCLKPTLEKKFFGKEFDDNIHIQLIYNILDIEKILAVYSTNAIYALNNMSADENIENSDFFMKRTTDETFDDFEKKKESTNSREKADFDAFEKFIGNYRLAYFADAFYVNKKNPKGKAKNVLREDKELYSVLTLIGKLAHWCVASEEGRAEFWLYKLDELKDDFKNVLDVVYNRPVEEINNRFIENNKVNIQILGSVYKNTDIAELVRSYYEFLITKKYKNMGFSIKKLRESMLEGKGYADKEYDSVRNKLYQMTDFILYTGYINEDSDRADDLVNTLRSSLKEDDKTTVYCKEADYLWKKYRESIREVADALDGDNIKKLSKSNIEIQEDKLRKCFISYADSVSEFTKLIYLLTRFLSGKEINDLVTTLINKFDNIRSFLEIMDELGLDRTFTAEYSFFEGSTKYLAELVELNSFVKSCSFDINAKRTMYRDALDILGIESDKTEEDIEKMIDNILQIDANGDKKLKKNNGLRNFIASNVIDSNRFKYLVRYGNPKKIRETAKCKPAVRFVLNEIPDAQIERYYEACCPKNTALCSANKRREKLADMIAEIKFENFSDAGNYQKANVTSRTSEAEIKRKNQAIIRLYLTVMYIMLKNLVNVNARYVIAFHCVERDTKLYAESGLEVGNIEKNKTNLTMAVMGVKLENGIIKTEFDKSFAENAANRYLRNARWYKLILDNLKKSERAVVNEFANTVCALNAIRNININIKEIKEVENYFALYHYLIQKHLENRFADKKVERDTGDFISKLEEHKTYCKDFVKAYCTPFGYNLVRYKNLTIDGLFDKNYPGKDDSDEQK
Kind of series: crRNA (strand 1, pre-loaded); Mg2+; 40 mM Tris-HCl pH 7.5, 150 mM NaCl, 6 mM MgCl2, 1 mM DTT, 0.1% Tween-20, 0.2 mg/ml BSA; 25 C; 10 min per concentration, then washed. To be noted: tags: His6-TwinStrep-SUMO cleaved; N-terminal SNAP kept (SNAP-Surface 488); label: 3' end held by stalled T7 RNA polymerase.
B1 yielded a Kd of 7.34 ± 0.35 nM.

As for B2, the Kd was 17.3 ± 1.4 nM.

As to B3, the equilibrium dissociation constant (Kd) turned out to be 21.9 ± 1.3 nM.

B4: the affinity, expressed as Kd, was 8.2 ± 1.8 nM. Take B5: the Kd came to 15.3 ± 2.5 nM. In turn, B6 gave a Kd of 14 ± 2 nM. With B7, the Kd is approximately 50 nM.

B8: binding was characterised by a dissociation constant (Kd) of 15.3 ± 2.4 nM.

B9 came in with a Kd of 7.1 ± 0.6 nM.

Regarding B10, binding was characterised by a dissociation constant (Kd) of 8 ± 0.8 nM. Take B11: binding was characterised by a dissociation constant (Kd) of 6.2 ± 0.7 nM. On to B12, for which the Kd was 9.9 ± 1.6 nM. For B13 the value was 14 ± 4 nM; for B14, 7.4 ± 1.6 nM; for B15, 4.7 ± 1.1 nM. In turn, B16 registered an equilibrium dissociation constant (Kd) of 9.3 ± 1.4 nM. B17 registered a Kd of 16.6 ± 2.6 nM.

Molecule B18 returned a Kd of 3.6 ± 1.3 nM. Consider B19, for which the Kd came out at 18 ± 5 nM. On to B20, for which the Kd was determined as 11 ± 4 nM. Regarding B21, binding was put at a Kd of 4.5 ± 0.4 nM. For the molecule B22, binding was put at a Kd of 9.1 ± 1.6 nM. For B23 the value was 5.2 ± 0.9 nM.

Source of the values: publication PMC10786891, “Massively parallel profiling of RNA-targeting CRISPR-Cas13d”.
